# Test results published in US20260042834A1 (HBM ALPHA THERAPEUTICS, published 2026).
# Positions count from the first letter of the chain named. Values joined by “and” are separate entries in the source; they are usually repeats but may differ in a detail not shown here. Equal values may be shown once.
# T1: CRH (NT-Biotin) (human and mouse (same sequence), not fully specified; biotin at the N-terminus)
# T1 peptide: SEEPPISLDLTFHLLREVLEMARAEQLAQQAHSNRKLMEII
# T2: CRH (CT-Biotin) (human and mouse (same sequence), biotin on an added C-terminal K (CRH-K-Biotin))
# T2 construct: also called Peptide 4 (CRH-Biotin)
# T2 peptide: T1 peptide
# T3: biotinylated CRH (human and mouse, not fully specified; biotinylated, position not stated)
# T3 construct: also called Biotin-CRH; biotin-labeled CRH
# T3 peptide: T1 peptide
# T4: human UCN1 peptide (human, UniProt P55089 83-122)
# T4 peptide (looked up): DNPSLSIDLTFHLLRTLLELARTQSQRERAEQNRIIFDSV
# T5: corticotropin-releasing hormone (CRH) peptide (human and mouse, not fully specified)
# T5 peptide: T1 peptide
# T6: corticotropin-releasing hormone (CRH) peptide (human and mouse (same sequence), not fully specified)
# T6 peptide: T1 peptide
# T7: CRH (NT Biotin) (human and mouse, not fully specified; biotin at the N-terminus)
# T7 peptide: T1 peptide
# T8: CRH (CT Biotin) (human and mouse, C-terminal K-Biotin)
# T8 construct: also called Peptide 4 (CRH-Biotin)
# T8 peptide: T1 peptide
# B1: PR302064 (antibody, human IgG1, kappa, V domains shown)
# VH: EMQLVESGGGLVKPGGSLRLSCAASGFTFSNYWMNWVRQAPGKGLEWVAEIRLKSNNYATHYAESVKGRFTISRDDSKSTVYLQMNSLKTEDTAVYYCTVGTLVYWGQGTLVTVSS
# VL: DIVLTQSPDSLAVSLGERATINCRASQSVSTSTYNYMHWFQQKPGQPPKLLIKFASNLESGVPDRFSGSGSGTDFTLTISSLQAEDTAVYYCQHSWEIPYTFGQGTKLEIKR
# notes: humanized variant of PR301777
# B2: PR302041 (antibody, human IgG1, kappa, V domains shown)
# VH: B1 VH with K13Q, T80S
# VL: DIQLTQSPSSLSASVGDRVTITCRASQSVSTSTYNYMHWFQQKPGKAPKLLIKFASNLESGVPSRFSGSGSGTDFTLTISSLQPEDTATYYCQHSWEIPYTFGQGTKLEIKR
# notes: humanized variant of PR301777
# B3: PR302048 (antibody, human IgG1, kappa, V domains shown)
# VH: B1 VH with M2V, K13Q, R19K, P41S, A49G, S79N, V81A, V100R
# VL: B2 VL
# notes: humanized variant of PR301777
# B4: PR302066 (antibody, human IgG1, kappa, V domains shown)
# VH: B1 VH
# VL: EIVLTQSPATLSLSPGERATLSCRASQSVSTSTYNYMHWFQQKPGQAPRLLIKFASNLESGIPARFSGSGSGTDFTLTISSLEPEDTAVYYCQHSWEIPYTFGQGTKLEIKR
# notes: humanized variant of PR301777
# B5: PR302034 (antibody, human IgG1, kappa, V domains shown)
# VH: B1 VH with M2V, K13Q, A49G, S79N, T80S, V81L
# VL: B2 VL
# notes: humanized variant of PR301777
# B6: PR302069 (antibody, human IgG1, kappa, V domains shown)
# VH: B1 VH
# VL: B2 VL
# notes: humanized variant of PR301777
# B7: PR005656 (antibody, human IgG1, kappa, V domains shown)
# VH: EVQLVESGGVLVQPGGSLRLSCAASGFTFSSYWMTWVRQAPGKGLEWVANIKQEGSEKYYVDSVKGRFTISRDNAKNSLFLQMNSLRAEDTAVYYCARTLIFDYWGQGTLVTVSS
# VL: DIVMTQSPLSLPVTPGEPASISCRSSQSLLHSTGYNSLEWYLQKPGQSPQLLIYLGSNRASGVPDRFSGSGSGTDFTLKISRVEAEDVGIYYCMQTLQTPITFGQGTRLEIKR
# notes: PTM-removal variant of PR004290
# B8: PR005662 (antibody, human IgG1, kappa, V domains shown)
# VH: B7 VH with E54D, G55A
# VL: B7 VL with N36Q
# notes: as for B7
# B9: PR006151 (antibody, human IgG1, kappa, V domains shown)
# VH: B7 VH with E54D, G55S
# VL: B7 VL with N36H
# notes: as for B7
# B10: PR006147 (antibody, human IgG1, kappa, V domains shown)
# VH: B7 VH with E54D, G55A
# VL: B7 VL with N36H
# notes: as for B7
# B11: PR006149 (antibody, human IgG1, kappa, V domains shown)
# VH: B7 VH with E54D, G55A
# VL: B7 VL with N36S
# notes: as for B7
# B12: PR005658 (antibody, human IgG1, kappa, V domains shown)
# VH: B7 VH with E54D
# VL: B7 VL with N36Q
# notes: as for B7
# B13: PR006148 (antibody, human IgG1, kappa, V domains shown)
# VH: B7 VH with E54D, G55A
# VL: B7 VL with S37P
# notes: as for B7
# B14: PR006153 (antibody, human IgG1, kappa, V domains shown)
# VH: B7 VH with E54D, G55S
# VL: B7 VL with N36S
# notes: as for B7
# B15: PR006152 (antibody, human IgG1, kappa, V domains shown)
# VH: B7 VH with E54D, G55S
# VL: B7 VL with S37P
# notes: as for B7
# B16: PR006150 (antibody, human IgG1, kappa, V domains shown)
# VH: B7 VH with E54D, G55S
# VL: B7 VL with N36D
# notes: as for B7
# B17: PR006146 (antibody, human IgG1, kappa, V domains shown)
# VH: B7 VH with E54D, G55A
# VL: B7 VL with N36D
# notes: as for B7
# B18: PR006144 (antibody, human IgG1, kappa, V domains shown)
# VH: B7 VH
# VL: B7 VL with S37P
# notes: as for B7
# B19: PR006142 (antibody, human IgG1, kappa, V domains shown)
# VH: B7 VH
# VL: B7 VL with N36D
# notes: as for B7
# B20: PR005660 (antibody, human IgG1, kappa, V domains shown)
# VH: B7 VH
# VL: B7 VL with N36Q
# notes: as for B7
# B21: PR302341 (antibody, human IgG1, kappa, V domains shown)
# VH: EVQLQQSGPELVKPGASVKMSCKASGYTFTDYFMKWVKQSHGESLEWIGVINPNNGDIFYNQKFKGKATLTVDKSSSTAFMQLNSLTSEDSAVYSCARGTDRALFAYWGQGTLVAVSA
# VL: DVLMTQTPLSLPVSLGDQASISCRSGQSIVHSDGNTYLEWYLQRPGQSPRLLIYKVSNRFSGVPDRFSGSGSGTDFTLKISRVGAEDLGIYYCFQGSHIPWTFGGGTKLEVKR
# notes: Series 10; mouse variable domains with human IgG1 wildtype Fc
# Biological target: T1, CRH (NT-Biotin)
# Test: ELISA, biotinylated CRH on streptavidin plate
# Method: (§1) Streptavidin (Thermo, Cat: 21125) was diluted in PBS to a concentration of 2 μg/ml. 100 μl of diluted streptavidin was added per well to ELISA microplates, and the plates were incubated overnight at 4° C. […] 100 μL of 3,3′,5,5′-tetramethylbenzidine (TMB) substrate (Biopanda, Cat: TMB-S-003) was added, and the plates were incubated at room temperature for 15 minutes. 100 μL of ELISA stopping solution (Solarbio, Cat #: C1058) was added to terminate the reaction, and the optical density at 450 nm (OD450 nm) was determined by an ELISA plate reader (Molecular Devices, Spectra max 384 plus).
row,Binder,EC50 [nM]
1,B1,0.062
2,B2,0.063
3,B3,0.043
4,B4,0.077
5,B5,0.026
6,B6,0.061

# Biological target: T2, CRH (CT-Biotin)
# Test: ELISA, biotinylated CRH on streptavidin plate
# Method: as §1
row,Binder,EC50 [nM]
1,B1,0.022
2,B2,0.035
3,B3,0.024
4,B4,0.019
5,B5,0.022
6,B6,0.016

# Biological target: T1, CRH (NT-Biotin)
# Test: ELISA, biotinylated CRH on streptavidin plate
# Remark: another data set of the same source
# Method: as §1
row,Binder,EC50 [nM]
1,B7,0.026
2,B8,0.023
3,B9,0.03
4,B10,0.023
5,B11,0.019
6,B12,0.026
7,B13,0.035
8,B14,0.019
9,B15,0.028
10,B16,0.013
11,B17,0.025
12,B18,0.033
13,B19,0.048
14,B20,0.033

# Biological target: T2, CRH (CT-Biotin)
# Test: ELISA, biotinylated CRH on streptavidin plate
# Remark: another data set of the same source
# Method: as §1
row,Binder,EC50 [nM]
1,B7,0.033
2,B8,0.052
3,B9,0.023
4,B10,0.027
5,B11,0.027
6,B12,0.044
7,B13,0.03
8,B14,0.019
9,B15,0.023
10,B16,0.016
11,B17,0.024
12,B18,0.032
13,B19,0.046
14,B20,0.051

# Biological target: T3, biotinylated CRH
# Test: Octet BLI, biotinylated CRH on SA sensor
# Method: Octet® Red 96e was used for affinity measurement. Octet® running buffer was prepared by diluting kinetics buffer 10× (Fortebio, Cat #18-1105) in PBS according to the manufacturer's instructions. Two columns of SA sensors (Fortebio, Cat #18-5019) were hydrated in running buffer for 10 mins, one for ligand capturing and the other for reference. Antibodies were 2-fold diluted and added into a 96-well plate. […] After a 60-second baseline step, sensors were dipped into analyte and buffer wells successively, with the association and dissociation time of 180 seconds and 800 seconds, respectively. […] Signals of reference wells and reference sensors were subtracted by selecting “Double reference” before data fitting.
Binder,Kd [nM],koff [s⁻¹],kon [M⁻¹ s⁻¹]
B21,< 0.001,2.18e-07,1.01e+06

# Biological target: T4, human UCN1 peptide
# Test: cell-based or functional assay
Binder,CHO-CRE-hCRHR1 1 nM hUCH1 IC50 [nM],hUCN1 IC50/ CRH IC50 [fold]
B21,19,40

# Biological target: T5, corticotropin-releasing hormone (CRH) …
# Test: cell-based or functional assay
row,Binder,CHO-CRE-hCRHR1 0.5 nM CRH IC50
1,B21,0.503 nM and 0.437 nM

# Biological target: T6, corticotropin-releasing hormone (CRH) …
# Test: cell-based or functional assay
Binder,hCRHR1 Luciferase Reporter Assay IC50 [nM],mCrhr1 Luciferase Reporter Assay IC50 [nM]
B1,0.989,4.92

# Biological target: T7, CRH (NT Biotin)
# Test: ELISA, biotin peptide on streptavidin plate
# Method: as §1
row,Binder,EC50 [nM]
1,B21,0.023

# Biological target: T8, CRH (CT Biotin)
# Test: ELISA, biotin peptide on streptavidin plate
# Method: as §1
row,Binder,EC50 [nM]
1,B21,0.017

# Biological target: T6, corticotropin-releasing hormone (CRH) …
# Test: cell-based or functional assay
# Remark: another data set of the same source
Binder,hCRHR1 Luciferase Reporter Assay IC50 [nM],mCrhr1 Luciferase Reporter Assay IC50 [nM]
B7,1.74,4.26
B8,15.8,42.4
B9,13.6,57.6
B10,12.1,39.9
B11,8.04,40.1
B12,16.2,29.7
B13,2.5,4.87
B14,12.4,39.5
B15,2.19,4.4
B16,5.88,18.3
B17,4.89,18
B18,1.2,3.6
B19,4.4,–
B20,10.3,29

# Biological target: T6, corticotropin-releasing hormone (CRH) …
# Test: cell-based or functional assay
# Remark: another data set of the same source
Binder,hCRHR1 Luciferase Reporter Assay IC50 [nM],mCrhr1 Luciferase Reporter Assay IC50 [nM]
B1,0.531,2.39
B2,2.54,7.17
B3,6.66,33.3
B4,2.49,11.5
B5,6.87,204
B6,1.54,4.4
